Experimental data reported in paper PMC3192843.

Test system: nsp16;nsp10 (SARS-CoV strain WHU;SARS-CoV strain WHU)
Experiment: ITC
Details: 5' m7GpppA cap-0

Question: With m7GpppA-RNA as the substance, how does the Kd read?
Answer: The Kd was 1210 nM.
